Experimental data as given in article PMC7210939, “ABCG2 transports anticancer drugs via a closed-to-open switch” (Nature Communications, 2020).

Target: T1, Wild-type human ABCG2 with an N-terminal GFP tag (human, UniProt Q9UNQ0)
T1 construct: ABCG2, human, wild type; also called GFP-ABCG2; WT; not shown: GFP, N-terminal, kept
Experiment: flow cytometry on cells; 5D3 antibody shift assay: stable GFP-ABCG2 HEK293F cells, 1 ug/mL 5D3 in PBS with 0.5% BSA, 37 °C 45 min, with or without MXN, SN38, imatinib or Ko143; goat-anti-mouse IgG-PE; gated on high GFP
Conditions: one partner purified

T1 sequence (Q9UNQ0 whole entry): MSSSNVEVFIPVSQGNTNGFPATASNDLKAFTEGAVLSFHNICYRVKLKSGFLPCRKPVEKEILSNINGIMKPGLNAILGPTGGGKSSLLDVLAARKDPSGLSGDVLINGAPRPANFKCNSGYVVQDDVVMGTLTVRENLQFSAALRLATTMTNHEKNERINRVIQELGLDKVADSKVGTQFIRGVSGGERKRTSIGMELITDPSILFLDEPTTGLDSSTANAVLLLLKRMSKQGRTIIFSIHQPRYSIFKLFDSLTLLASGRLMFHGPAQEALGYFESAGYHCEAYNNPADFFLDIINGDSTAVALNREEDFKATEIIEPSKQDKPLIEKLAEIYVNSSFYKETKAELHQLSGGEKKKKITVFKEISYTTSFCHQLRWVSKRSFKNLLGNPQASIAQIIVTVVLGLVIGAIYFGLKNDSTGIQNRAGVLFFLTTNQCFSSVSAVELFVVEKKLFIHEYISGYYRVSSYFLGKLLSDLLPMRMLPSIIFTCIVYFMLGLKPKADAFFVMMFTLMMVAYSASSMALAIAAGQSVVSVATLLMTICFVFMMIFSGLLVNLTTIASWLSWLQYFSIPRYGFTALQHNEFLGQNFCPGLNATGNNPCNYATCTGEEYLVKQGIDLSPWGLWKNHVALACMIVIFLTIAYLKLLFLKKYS

B1: 5D3 antibody (antibody, V domains shown)
VH: QVQLQESGPGLVKPSQSLSLTCTVTGFSITSDYAWNWIRQFPGKKLEWMGYINFDGGTTYNPSLRGRISITRDTSKNQFFLQLRSVTPEDTATYYCATFYGAKGTLDYWGQGTSVTVSS
VL: DIVLTQSPSSFSVSLGDRVTISCKASGYILNRLAWYQQKPGNAPRLLISGATSLETGFPSRFSGTGSGKDYTLSISSLQTEDVGTYYCQQYWSTPWTFGGGTKLEIR
notes: the PDB entry holds the Fab only; also called conformation specific 5D3 antibody
**Q.** Does B1 bind?
**A.** Result: binds
